In publication PMC5449627:

Biological target: AGO2 (Argonaute 2) (UniProt Q9UKV8)
Assay: single-molecule FRET
Settings: guide 5' phosphate; internal amino-C6 U18; single-molecule FRET on immobilized biotinylated target RNA; 100 nM AUF1 where added; buffer, salt, pH and temperature not in the material

Chain of AGO2 (Argonaute 2) (Q9UKV8 whole entry): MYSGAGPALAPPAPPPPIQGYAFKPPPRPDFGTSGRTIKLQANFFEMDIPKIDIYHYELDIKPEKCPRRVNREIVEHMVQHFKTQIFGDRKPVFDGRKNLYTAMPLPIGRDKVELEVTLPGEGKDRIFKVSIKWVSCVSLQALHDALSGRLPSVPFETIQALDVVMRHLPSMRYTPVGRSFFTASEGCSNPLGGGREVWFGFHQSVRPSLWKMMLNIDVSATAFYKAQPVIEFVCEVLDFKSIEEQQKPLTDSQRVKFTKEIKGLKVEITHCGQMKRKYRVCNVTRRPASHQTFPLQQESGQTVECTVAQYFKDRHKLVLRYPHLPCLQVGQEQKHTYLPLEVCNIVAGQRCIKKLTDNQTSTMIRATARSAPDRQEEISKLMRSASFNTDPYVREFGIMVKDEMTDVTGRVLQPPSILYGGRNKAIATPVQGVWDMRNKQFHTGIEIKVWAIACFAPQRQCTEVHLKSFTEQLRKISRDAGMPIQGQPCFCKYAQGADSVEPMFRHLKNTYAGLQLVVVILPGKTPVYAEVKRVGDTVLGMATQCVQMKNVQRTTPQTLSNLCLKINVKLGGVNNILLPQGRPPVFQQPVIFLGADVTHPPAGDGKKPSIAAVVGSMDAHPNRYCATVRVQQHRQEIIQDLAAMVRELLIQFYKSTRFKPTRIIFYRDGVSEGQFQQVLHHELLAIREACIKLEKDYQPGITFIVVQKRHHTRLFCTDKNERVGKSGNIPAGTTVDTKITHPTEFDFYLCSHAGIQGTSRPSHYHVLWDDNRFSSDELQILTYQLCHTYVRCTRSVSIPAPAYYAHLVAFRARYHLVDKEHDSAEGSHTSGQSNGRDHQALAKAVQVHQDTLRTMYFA

Row | Sequence | binding signal (% decrease of binding rate)
1 | UGAGGUAGUAGGUUGUGUGGUU / UAACCACACUGUUGACUACCUCACCCCCCCCCCCCCCCC [let-7b guide / POLR2D RNA with let-7b WT] | 42
2 | UGAGGUAGUAGGUUGUGUGGUU / UAACCACACUGUUGACUACCUCAUUCCUGGUUUUUGGCCUCCACAUCAUCUUUUUUCUUAAUAUUUCAUCCCCCCCCCCCCCCCC [let-7b guide / POLR2D RNA with let-7b WT and AUF1 site] | 78
